Results as given in publication PMC5466061.

B1: hTert 1-12 (structured_DNA)
DNA: AGGGGAGGGGCTGGGAGGGCCCGGAGGGGGCTGGGCCGGGGACCCGGGAGGGGTCGGGACGGGGCGGGGT
B2: (GGGTTA)8 (structured_DNA)
DNA: TCGAGGGTTAGGGTTAGGGTTAGGGTTAGGGTTAGGGTTAGGGTTAGGGTTAC

target: nucleolin (NCL) (Homo sapiens, UniProt P19338 1-710); assay: EMSA
Sequence (P19338 whole entry): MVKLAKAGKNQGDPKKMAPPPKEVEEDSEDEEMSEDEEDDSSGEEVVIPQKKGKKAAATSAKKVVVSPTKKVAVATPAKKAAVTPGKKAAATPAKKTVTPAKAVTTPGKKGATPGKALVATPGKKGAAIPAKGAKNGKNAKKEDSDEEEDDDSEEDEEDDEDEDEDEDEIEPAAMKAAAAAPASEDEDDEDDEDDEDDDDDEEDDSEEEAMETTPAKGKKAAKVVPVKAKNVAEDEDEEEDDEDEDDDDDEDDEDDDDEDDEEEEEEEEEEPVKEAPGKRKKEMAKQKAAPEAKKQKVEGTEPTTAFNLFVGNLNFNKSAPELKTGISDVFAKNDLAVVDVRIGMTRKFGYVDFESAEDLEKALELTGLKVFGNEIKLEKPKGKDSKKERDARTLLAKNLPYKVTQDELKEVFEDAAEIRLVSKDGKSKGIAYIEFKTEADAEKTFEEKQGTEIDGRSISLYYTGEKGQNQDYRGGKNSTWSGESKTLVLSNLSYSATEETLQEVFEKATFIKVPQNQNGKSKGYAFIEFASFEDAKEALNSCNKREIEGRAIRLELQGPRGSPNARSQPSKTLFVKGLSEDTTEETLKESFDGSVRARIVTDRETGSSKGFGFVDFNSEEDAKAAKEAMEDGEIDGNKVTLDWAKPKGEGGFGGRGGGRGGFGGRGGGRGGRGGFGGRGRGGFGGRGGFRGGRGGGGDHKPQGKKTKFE

Binding result, binds:
GGGTTAGGGTTAGGGTTAGGGTTAGGGTTAGGGTTA (structured_DNA) [(GGGTTA)6]
GGGTTTGGGTTTTTTTTTGGGTTTGGG (structured_DNA) [n5M3]
TGGGGAGGGTGGGGAGGGTGGGGAAGG (structured_DNA) [c-myc]
GGGTTTTTTTTTGGGTTTGGGTTTGGG (structured_DNA) [n5M2]
GGGTGGGTGGGTGGG (structured_DNA) [111]
GGGTTTGGGTTTGGGTTTTTTTTTGGG (structured_DNA) [n5M4]
B1
AGGGGGCTGGGCCGGGGACCCGGGAGGGGTCGGGACGGGGCGGGGT (structured_DNA) [hTert 5-12]
B2
GGGTTTGGGTTTGGGTTTGGG (structured_DNA) [(GGGTTT)4 = 333]
GGGTTAGGGTTAGGGTTAGGG (structured_DNA) [(GGGTTA)4]
GGGTTTGGGTTTGGGTTTGGGTTTGGGTTTGGGTTTGGGTTTGGGTTT (structured_DNA) [(GGGTTT)8]
GGGTTTGGGTTTGGGTTTGGGTTTGGGTTTGGGTTT (structured_DNA) [(GGGTTT)6]
AGGGGCGGGCGCGGGAGGAAGGGGGCGGGAGCGGGGCTG (structured_DNA) [bcl-2]
GGGTTTGGGTTTGGGTTTGGGTTTGGG (structured_DNA) [(GGGTTT)5]
